From paper PMC4091690, “A Broadly Conserved G-Protein-Coupled Receptor Kinase Phosphorylation Mechanism Controls Drosophila Smoothened Activity” (PLoS Genetics, 2014)

T1: Smo^core (Drosophila Smoothened amino acids 1-663), C-terminally tagged with GFP10 (Drosophila, UniProt P91682 32-663)
T1 construct: signal peptide in the construct; Smoothened (Smo), Drosophila melanogaster, amino acids 1-663, truncated just after the third Gprk2 phosphorylation cluster; also called Smo^core-GFP10; source: S2-R+ cells, transfected (pRmHa3.puro, induced with CuSO4), in intact cells; not shown: GFP10, C-terminal, kept
T1 sequence (looked up): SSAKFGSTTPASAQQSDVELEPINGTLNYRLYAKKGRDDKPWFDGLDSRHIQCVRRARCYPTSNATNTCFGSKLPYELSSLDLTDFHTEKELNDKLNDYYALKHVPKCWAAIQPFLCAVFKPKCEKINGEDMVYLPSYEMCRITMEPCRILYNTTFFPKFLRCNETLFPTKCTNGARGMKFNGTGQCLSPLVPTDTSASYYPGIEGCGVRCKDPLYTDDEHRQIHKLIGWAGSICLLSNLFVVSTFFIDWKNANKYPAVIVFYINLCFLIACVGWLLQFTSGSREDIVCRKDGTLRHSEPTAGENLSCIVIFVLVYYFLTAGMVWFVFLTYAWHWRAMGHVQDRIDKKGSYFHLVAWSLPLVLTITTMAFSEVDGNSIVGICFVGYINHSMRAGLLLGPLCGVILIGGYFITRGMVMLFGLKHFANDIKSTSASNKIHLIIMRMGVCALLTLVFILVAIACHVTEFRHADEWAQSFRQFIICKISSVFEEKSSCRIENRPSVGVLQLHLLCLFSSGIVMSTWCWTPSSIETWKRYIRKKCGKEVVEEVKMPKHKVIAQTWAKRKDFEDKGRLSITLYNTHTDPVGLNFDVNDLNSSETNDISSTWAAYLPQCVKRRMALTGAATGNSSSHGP

B1: Costal-2 (Cos2), C-terminally tagged with Renilla luciferase II (natural protein, Drosophila, UniProt O16844 1-1201, looked up)
chain: MEIPIQVAVRIFPHRELKDLLRSFGPTEPKKDAQAVDEGADSKDSEAQVPAAEKDNPSISETDPNGNAEQDSAADSKTIPDANGNDSGQKDYPDSAYCVQAIPISASALGLPSALPGGDPMDSIAAGLIQVGPHTVPVTHALPSSSSQEQVYHQTVFPLITLFLEGFDASVVTYGQRGQGKSYTLYGNVQDPTLTDSTEGVVQLCVRDIFSHISLHPERTYAINVGFVEICGGDVCDLLGMGNIHCTNVDAVFHWLQVGLSARQSLPAHTLFTLTLEQQWVSKEGLLQHRLSTASFSDLCGTERCGDQPPGRPLDAGLCMLEQVISTLTDPGLMYGVNGNIPYGQTTLTTLLKDSFGGRAQTLVILCVSPLEEHLPETLGNLQFAFKVQCVRNFVIMNTYSDDNTMIVQPAEPVPESNSSAGPLSQAGPGDNFGLQFAASQWSKLVTNAEGLFSKLIDSKLITEVEKEQIEEWLFLKQECEECLSSTEAMRQQKQLVPILEAEEPEDVNSEAANSESPNSDNENDTDNESHRPDLDDKIESLMEEFRDKTDALILEKHAEYLSKHPKAVMQSQDREIEAQPPEENGDDRKVSIGSRRRSVQPGASLSTAELAMLNRVASQQPPPPIDPESVVDPLESSSGEGIRQAALAAAAATAPIEQLQKKLRKLVAEIEGKQRQLREIEETIQVKQNIIAELVKNSDTRSHAKQRFHKKRAKLEAECDKAKKQLGKALVQGRDQSEIERWTTIIGHLERRLEDLSSMKHIAGESGQKVKKLQQSVGESRKQADDLQKKLRKECKLRCQMEAELAKLRESRETGKELVKAQGSPEQQGRQLKAVQARITHLNHILREKSDNLEEQPGPEQQETLRHEIRNLRGTRDLLLEERCHLDRKLKRDKVLTQKEERKLLECDEAIEAIDAAIEFKNEMITGHRSIDTSDRIQREKGEQMLMARLNRLSTEEMRTLLYKYFTKVIDLRDSSRKLELQLVQLERERDAWEWKERVLSNAVRQARLEGERNAVLLQRQHEMKLTLMLRHMAEETSASSASYGERALAPACVAPPVQASSDFDYDHFYKGGGNPSKALIKAPKPMPTGSALDKYKDKEQRSGRNIFAKFHVLTRYASAAAAGSSGSTAEESTALIESTTTATATTTSTTTTGAVGKVKDKALVSFRPEQLKRLMPAPTATKVTRQKNKIIIQDASRRN
notes: Costal-2 (Cos2), kinesin-like protein, Drosophila; also called Cos2-Luc; Cos2-RLucII; source: S2-R+ cells, transfected (pRmHa3.puro, induced with CuSO4), in intact cells; not shown: RLucII, C-terminal, kept

How the values were obtained:
[1] = biological target: Smo^SD.c12D (Smo^SD with Gprk2 phosphorylation clusters 1 and 2 changed to Asp), C-terminally tagged with GFP10 or RLucII (UniProt P91682); assay: BRET; details: S2 cells, Luc + GFP10 tagged pair, read off a plot
[2] = biological target: T1, Smo^core (Drosophila Smoothened amino …); assay: FRET or BRET; BRET in intact S2-R+ cells between C-terminally GFP10-tagged truncated Smo variants (300 ng) and Cos2-RLucII (75 ng), myc-Fu (75 ng) co-transfected; cells treated with control (beta-gal), gprk2 or smo 3'UTR dsRNA, without or with myc-Gprk2; net BRET; details: partners not purified

Molecule	response ([1]; dsRNA targeting β-gal (control), parent: est. 100)	response ([1]; gprk2 dsRNA, parent: est. 67)	fold increase of net BRET on Gprk2 overexpression against control cells [2]
Smo^SD (PKA- and CKI-phosphomimetic form of Drosophila Smoothened), C-terminally tagged with GFP10 or Renilla luciferase II (from UniProt P91682) S604D; T606D; T610D; T612D; S626D; S627D; T629D; S633D; S634D; T635D	170	160	
B1			> 2.2 fold
